Substitutions are numbered along the chain they refer to. Names and notes keep the numbering of the source.
T1: human Sortilin (SORT1), full-length untagged, expressed on cells (human, UniProt Q99523 78-831)
T1 construct: U251 cells expressing SORT1 endogenously (down-regulation and PGRN secretion assays); also called human SORT1
T1 sequence: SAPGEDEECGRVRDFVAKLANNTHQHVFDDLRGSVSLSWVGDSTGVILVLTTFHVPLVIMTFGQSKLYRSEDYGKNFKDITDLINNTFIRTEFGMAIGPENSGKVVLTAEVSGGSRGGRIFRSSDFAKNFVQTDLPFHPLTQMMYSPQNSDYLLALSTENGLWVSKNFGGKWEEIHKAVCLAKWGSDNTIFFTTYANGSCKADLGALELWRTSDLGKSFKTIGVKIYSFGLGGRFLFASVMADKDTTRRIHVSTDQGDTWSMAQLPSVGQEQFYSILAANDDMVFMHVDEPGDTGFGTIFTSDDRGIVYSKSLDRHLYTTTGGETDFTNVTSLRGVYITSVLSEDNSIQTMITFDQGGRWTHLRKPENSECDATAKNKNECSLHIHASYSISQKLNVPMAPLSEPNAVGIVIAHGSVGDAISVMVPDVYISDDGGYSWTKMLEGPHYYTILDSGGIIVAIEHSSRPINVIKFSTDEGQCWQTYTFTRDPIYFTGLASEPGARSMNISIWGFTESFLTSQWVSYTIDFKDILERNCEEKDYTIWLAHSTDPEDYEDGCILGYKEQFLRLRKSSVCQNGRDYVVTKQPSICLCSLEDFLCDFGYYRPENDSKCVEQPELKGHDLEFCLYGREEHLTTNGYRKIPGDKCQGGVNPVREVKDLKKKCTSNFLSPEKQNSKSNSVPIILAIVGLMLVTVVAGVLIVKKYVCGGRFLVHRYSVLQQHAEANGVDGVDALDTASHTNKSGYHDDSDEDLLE

T2: histidine-tagged human SORT1 (R&D Systems) (human, UniProt Q99523 78-755)
T2 construct: Bought recombinant protein; also called His-tagged human SORT1; not shown: histidine tag
T2 sequence: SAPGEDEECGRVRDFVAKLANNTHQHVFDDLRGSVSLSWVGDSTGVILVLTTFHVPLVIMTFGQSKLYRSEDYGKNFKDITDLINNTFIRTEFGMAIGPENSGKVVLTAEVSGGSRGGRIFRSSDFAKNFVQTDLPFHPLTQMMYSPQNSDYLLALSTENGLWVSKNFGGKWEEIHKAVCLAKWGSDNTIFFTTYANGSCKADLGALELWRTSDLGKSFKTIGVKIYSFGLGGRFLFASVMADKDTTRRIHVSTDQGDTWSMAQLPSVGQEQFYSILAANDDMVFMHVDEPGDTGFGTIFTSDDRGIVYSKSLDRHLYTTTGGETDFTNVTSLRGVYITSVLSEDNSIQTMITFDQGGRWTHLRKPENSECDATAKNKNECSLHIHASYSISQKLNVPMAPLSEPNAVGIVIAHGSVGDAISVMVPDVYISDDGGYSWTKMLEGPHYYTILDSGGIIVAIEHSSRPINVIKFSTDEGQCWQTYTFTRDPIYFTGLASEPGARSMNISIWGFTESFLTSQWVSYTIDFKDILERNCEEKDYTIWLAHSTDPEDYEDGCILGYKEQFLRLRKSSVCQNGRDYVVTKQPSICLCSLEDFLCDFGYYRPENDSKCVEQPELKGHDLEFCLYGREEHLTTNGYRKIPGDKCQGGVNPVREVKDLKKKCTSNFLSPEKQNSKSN

B1: S-60-3 (antibody, IgG1, V domains shown)
VH: QVQLQESGPGLVKPSETLSLTCAVSGYSISSGYYWGWIRQPPGKGLEWIGTIYHSGSTYYNPSLKSRVTISVDTSKNQFSLKLSSVTAADTAVYYCARQGSIKQGYYGMDVWGQGTTVTVSS
VL: DIVMTQSPLSLPVTPGEPASISCRSSQSLLRSNGYNYLDWYLQKPGQPPQLLIYLGSNRVSGVPDRFSGSGSGTDFTLKISRVEAEDVGVYYCMQQQETPLTFGGGTKVEIK
notes: Tested on the huIgG1 (WT) backbone
B2: S-60-15.5 [N33D] (antibody, V domains shown)
VH: B1 VH
VL: DIVMTQSPLSLPVTPGEPASISCRSSQSLLRSDGYNYLDWYLQKPGQSPQLLIYLGSNRASGVPDRFSGSGSGTDFTLKISRAEAEDVGVYYCMQQQEAPLTFGGGTKVEIKR
notes: also called completely deamidated version of S-60-15
B3: S-60-19 (antibody, IgG1, V domains shown)
VH: B1 VH with R67Q, K82E, K103Q
VL: not shown
notes: as for B1
B4: S-60-18 (antibody, IgG1, V domains shown)
VH: B1 VH
VL: B1 VL with E17G, P48S, V60A, F67L
notes: as for B1
B5: S-60-12 (antibody, IgG1, V domains shown)
VH: B1 VH with R67Q, K82E, K103Q
VL: B1 VL
notes: as for B1
B6: S-60-13 (antibody, IgG1, V domains shown)
VH: B1 VH with K65E, K103Q
VL: not shown
notes: as for B1
B7: S-60-24 (antibody, IgG1, V domains shown)
VH: B1 VH
VL: B1 VL with P18S, S28G, P48S, V60A, T99A
notes: as for B1
B8: S-60-10 (antibody, IgG1, V domains shown)
VH: B1 VH with R67Q, K82E, K103Q
VL: not shown
notes: as for B1
B9: S-60-15.1 [N33T] LALAPS (antibody, human IgG1, kappa, L234A L235A, V domains shown)
VH: B1 VH
VL: B2 VL with D33T
notes: huIgG1 LALAPS
B10: S-60-15.1 [N33T] as huIgG1 (antibody, V domains shown)
VH: B1 VH
VL: B1 VL with N33T, P48S, V60A, V83A, T99A
notes: huIgG1 without the LALAPS mutations
B11: S-60-11 (antibody, IgG1, V domains shown)
VH: B1 VH with R67Q, K82E, K103Q
VL: not shown
notes: as for B1
B12: S-60-14 (antibody, IgG1, V domains shown)
VH: B1 VH with K65E, K103Q
VL: not shown
notes: as for B1

How the values were obtained:
[1] = molecular target: T1, human Sortilin (SORT1), full-length …; experiment: FACS on HEK293T cells expressing human SORT1, huIgG1; average of two experiments
Procedure: (§1) For the binding assay, stable HEK293T cells expressing human SORT1 were harvested by trypsinization, washed in PBS, counted and plated on 96-well u-bottom plates at 1×10⁵ cells/well. The plates were spun at 1,400 rpm for 3 minutes and primary anti-SORT1 or control antibodies were added in FACS buffer (PBS+2 FBS) and incubated on ice for one hour. Cells were subsequently centrifuged as before and washed thrice with FACS buffer. Cells were then incubated with anti-human APC conjugated secondary antibody (BD Biosciences) in FACS buffer for 30 minutes on ice. Cells were again washed three times with FACS buffer and analyzed on a BD FACS Canto or an Intellicyt Flow Cytometer. Binding was measured as median fluorescent intensity (MFI) in the […] channel of the GFP positive cell population.
(§2) All antibodies were tested on the huIgG1 backbone.

[2] = molecular target: T1, human Sortilin (SORT1), full-length …; experiment: cell-based or functional assay
[3] = molecular target: T1, human Sortilin (SORT1), full-length …; experiment: cell-based or functional assay; remark: listed apart in the source
[4] = molecular target: T1, human Sortilin (SORT1), full-length …; experiment: cell-based or functional assay; remark: listed apart in the source
[5] = molecular target: T2, histidine-tagged human SORT1 (R&D …); experiment: BLI (Octet RED96), antibody captured on anti-human IgG Fc sensor, 20 nM His-tagged human SORT1, 1:1 fit
Procedure: The G1m3 or G1m(f) allotype with L234A/L235A/P331S (“LALAPS” motif) mutations was used as a background (Jefferis R and Lefranc M-P, Mabs, 2009 July-August; 1(4): 332-338). […] Bio-layer interferometry (BLI) data was collected at a rate of 5 Hz at 25° C. on a Pall ForteBio Octet RED96 instrument. Data analysis was performed using ForteBio Data Analysis Software, version 9.0. Standard kinetic buffer (PBS, 0.1 BSA, 0.02 Tween-20, pH 7.2) was used for the assay and for preparing reagents. For all assays, sensor tips were equilibrated in buffer prior to analysis.
Twenty nM histidine-tagged human SORT1 (R&D Systems, Minneapolis, Minn.) was then bound to the captured anti-SORT1 surface (200 s association time, 1200 s dissociation time). […] Full, local fitting using a 1:1 interaction model was applied to extract association and dissociation rate constants (kₐ and kd, respectively) for each N33 mutant. Affinity constants (KD) were calculated from the ratio […]. Different amino acid substitutions were made at N33 and tested for binding to SORT1 in an off-rate screen (under non-stress conditions) as shown in Table 9.

[6] = molecular target: T1, human Sortilin (SORT1), full-length …; experiment: FACS on HEK293T cells expressing human SORT1, huIgG1
Procedure: as §1, §2

[7] = molecular target: T1, human Sortilin (SORT1), full-length …; experiment: cell-based or functional assay; remark: listed apart in the source
[8] = molecular target: T2, histidine-tagged human SORT1 (R&D …); experiment: BLI, complete kinetic analysis with multiple concentrations of SORT1
[9] = molecular target: T1, human Sortilin (SORT1), full-length …; experiment: FACS on HEK293T cells expressing human SORT1
Procedure: as §1

Row | Binder | DR at 1.25 nM antibody (IgG): percent SORT1 downregulation, U251 cells [3] [%] | Kd [6] [nM] | DR at 0.63 nM antibody (IgG): percent SORT1 downregulation, U251 cells [7] [%] | also measured
1 | B1 | 61.5 |  |  | Kd [1]: 0.856 nM; DR EC50 (M): down-regulation of cell surface SORT1, U251 cells, FACS [2]: 2.69e-10 M; DR at 0.6 nM antibody (IgG): percent SORT1 downregulation, U251 cells [2]: 43%
2 | B2 |  |  |  | % DR at 150 nM antibody (IgG), U251 cells [4]: 3.4%; Kd [5]: 1 nM
3 | B3 | 55.5 | 0.8 |  | 
4 | B4 | 51.3 | 1.63 |  | 
5 | B5 |  | 0.89 | 87.4 | 
6 | B6 |  | 0.75 | 82.3 | 
7 | B7 | 65.2 |  | 81.5 | Kd [1]: 0.755 nM
8 | B8 |  | 0.65 | 85.4 | 
9 | B9 |  |  |  | Kd [8]: 0.26 nM; % DR at 150 nM antibody (IgG), U251 cells [4]: 70.3%; EC50 (pM): downregulation (DR) of cell surface SORT1, U251 cells, FACS [4]: 104 pM
10 | B10 |  |  |  | Kd [8]: 0.298 nM; Kd [9]: 0.365 nM; % DR at 150 nM antibody (IgG), U251 cells [4]: 69.3%; EC50 (pM): downregulation (DR) of cell surface SORT1, U251 cells, FACS [4]: 72.6 pM
11 | B11 |  | 0.65 | 88.8 | 
12 | B12 |  | 1.05 | 80.5 | 

From patent US20200024348A1 (Alector, published 2020)
